Reference: patent US20070037736A1, “Therapeutic composition comprising the KAL protein and use of the KAL protein for the treatment of retinal, renal, neuronal and neural injury” (INSTITUT PASTEUR, priority 1997, published 2007)

Legend:
[1] = test system: olfactory neurons (line 24); assay: Adhesion and peptide/serum inhibition assay, colorimetric; assay type: cell-based, rat; conditions: for percentage of olfactory neurons (line 24) adherent on substrate: substrate coated to microtiter wells
Protocol: (§1) Adhesion assays were performed as described in (à compléter) with some modifications. Coating with the various molecules, at the indicated concentrations in 0.5 ml PBS, was performed in plastic 24-well multidishes (Nunclon™) at 37° C. (1 h or overnight).The cells were then washed three times with PBS, coating blocked with 1% heat-inactivated BSA (à compléter) for at least 1 h at 37° C., followed by three PBS washes, before addition of the cells (10^6 cells per ml in serum-free medium containing 0.1% heat-inactivated BSA). In standard experiments, purified KAL was applied at 3 μg/ml. Other substrates were used as control, fibronectin (20% g/ml) and poly-L-lysine (100 μg/ml).
(§2) Cells were incubated for 30 min to 1 h on coated wells. Medium was then aspirated and unbound cells removed by one wash with PBS. The adherent cells were fixed with […] paraformaldehyde (PFA) in PBS and stained with 0.1% crystal violet. Quantification of the attached cells was performed using a colorimetric method (à compléter). Data are expressed as the percentage of adherent cells on each tested substrate with reference to poly-L-lysine. Assays in triplicate were repeated in three independent experiments.
(§3) A 32 aminoacid peptide (32R1-FIG. 24) was synthesized (Syntiem laboratory). Control peptides were C17 (NH2CSLVPTKKKRRKTTDGF-COON) (SEQ ID NO:7) derived from the second fibronectin type III repeat of human KAL and C 16V (NHzCGSYANNNRYGRDPPTSV-000H), (SEQ ID NO:8) derived from the EYA1 protein (a completer). The peptides, at various concentrations (10 to 30 μg/ml), were directly adsorbed on polystyrene microtiter wells (Immulon 4, Nunc). Adhesion assays were performed as described above.
In peptide inhibition assays, cells were preincubated with the peptides at different concentrations (10 to 100 μg/ml) for 1 h at 4° C., then plated to KAL-coated wells, and incubated for a further 30 min period of time.

[2] = test system: PC12 cells; assay: Adhesion and inhibition assay, colorimetric; assay type: cell-based, rat; conditions: data not shown
Protocol: as §1, §2
Cells were incubated for 5 min at room temperature in HBSS containing 5 mM EDTA, washed once with HBSS and preincubated for 1 h at 4° C. in HBSS containing 0.1% BSA in the absence or in the presence of Ca^++ and/or Mg^++ prior plating.
Heparin, heparan sulfate or chondroitin sulfate (up to 1 mg/ml in PBS) was added in KAL-coated-BSA-saturated wells, and allowed to interact for 2 h at 37° C. After three washings with PBS, CHO-K1or PC12 cells were plated, and incubated as usual.
as §3, with “Adhesion assays were performed as described above.” left out

[3] = test system: olfactory neurons (line 24); assay: Spreading and neurite growth on coated substrates; assay type: cell-based, rat; conditions: for mean neurite length per olfactory neuron: mean ± SEM
Protocol: FIG. 28: Mean neurite length on the different substrates after one hour, two hours and eight hours in vitro. Mean value±SEM. More than 100 neurons were analyzed in each experimental condition.
Cells, in serum-free medium containing 0.1% heat inactivated BSA were seeded on KAL- or laminin-coated wells, and maintained for 20 min to 22 h at 37° C. Adherent cells were fixed, stained with toluidine blue, and photographied with an inverted microscope.

[4] = test system: CHO-745 cells; assay: Adhesion assay with HS- and CS-deficient mutant cells; assay type: cell-based, Chinese Hamster; conditions: KAL substrate
Source text: (§4) The parental CHO cell line and the human KAL-transfected CHO clones (1-1 and 2-3) were cultivated in DMEM medium supplemented with 8% fetal calf serum (PAA, Jacques Boy, France). • Cells from the olfactory neuronal line 13.S.1.24 also named “line 24” (kindly provided by Dr. Astic, Lyon, France) were cultivated in DMEM supplemented with 10% calf serum. Porcine kidney epithelial cells (LLCPK) ATCC NO CRL1392 • Mouse GnRH neurons (GT1, subclone 1) • Wild-type CHO-K1, mutant CHO-K1-677 (Lidholt K. et al., 1992) and CHO-K1-606 (Bame et al., 1994) cell lines were provided to us by Dr. Esko, the mutant CHO-K1-745 (Esko et al., 1987) cell line was obtained from ATCC. The CHO-K1-677 cells display undetectable levels of heparan-sulfate (HS), but synthesize chondroitin sulfate (CS) at a level 3 times higher than wild-type CHO-K1 cells. The CHO-K1-606 cells express HS and CS at levels similar to those observed in wild-type, but HS is 2 to 3 times less sulfated than in wild-type cells. The CHO-K1-745 cells, deficient in xylosyltransferase, synthesize neither HS nor CS (Esko et al., 1987). […]
(§5) Cells were incubated for 30 min to 1 h on coated wells. […] Quantification of the attached cells was performed using a colorimetric method (à compléter). Data are expressed as the percentage of adherent cells on each tested substrate with reference to poly-L-lysine. […]

[5] = test system: CHO-606 cells; assay: Adhesion assay with mutant cells expressing undersulfated HS; assay type: cell-based, Chinese Hamster; conditions: KAL substrate, versus wild-type CHO-K1
Source text: as §4, §5

[6] = test system: cerebellar granule neurons (aggregates); assay: Survival and neurite outgrowth of granule cell aggregates on coated substrates; assay type: cell-based, mouse; conditions: 48 hours culture
Protocol: Reaggregate cultures of cerebellar neurons from mice on postnatal day-5 were prepared according to Gao et al. (1995). After dissociation, cells were further purified by preplating on a poly-L-Lysine treated (25 μg/ml) substrate for 30 min and plated in uncoated 96-well dishes (5 10^5 cells/well) in BME plus 10% horse serum, 5% fetal calf serum, 9 mg/ml glucose, 0.3 mg/ml glutamine, 50 U/ml penicillin and 0.1 mg/ml streptomycin. Aggregates (100-200 cells) were harvested after 24 h to be used in coculture experiments.
prepared as described in the Materials and Methods section. Cerebellar granule neurons were seeded on surfaces that had been coated with KAL protein. Polylysine and bovine serum albumin (BSA) were used as positive and negative controls respectively.

[7] = test system: CHO-677 cells; assay: Adhesion assay with HS-deficient mutant cells; assay type: cell-based, Chinese Hamster; conditions: KAL substrate
Source text: The parental CHO cell line and the human KAL-transfected CHO clones (1-1 and 2-3) were cultivated in DMEM medium supplemented with 8% fetal calf serum (PAA, Jacques Boy, France). • Cells from the olfactory neuronal line 13.S.1.24 also named “line 24” (kindly provided by Dr. Astic, Lyon, France) were cultivated in DMEM supplemented with 10% calf serum. Porcine kidney epithelial cells (LLCPK) ATCC NO CRL1392 • Mouse GnRH neurons (GT1, subclone 1) • Wild-type CHO-K1, mutant CHO-K1-677 (Lidholt K. et al., 1992) and CHO-K1-606 (Bame et al., 1994) cell lines were provided to us by Dr. Esko, the mutant CHO-K1-745 (Esko et al., 1987) cell line was obtained from ATCC. The CHO-K1-677 cells display undetectable levels of heparan-sulfate (HS), but synthesize chondroitin sulfate (CS) at a level 3 times higher than wild-type CHO-K1 cells. The CHO-K1-606 cells express HS and CS at levels similar to those observed in wild-type, but HS is 2 to 3 times less sulfated than in wild-type cells. The CHO-K1-745 cells, deficient in xylosyltransferase, synthesize neither HS nor CS (Esko et al., 1987). Wild-type and mutant CHO-K1cells were maintained in Ham F12 medium supplemented with 10% fetal calf serum.
as §1, with “Other substrates were used as control, fibronectin (20% g/ml) and poly-L-lysine (100 μg/ml).” left out
as §5

[8] = test system: cerebellar granule cells; assay: Adhesion assay on coated wells, adherent cells counted with a cell counter (% of total cells); assay type: cell-based, mouse; conditions: coated dishes, 90 minute incubation
Protocol: Cerebellar cell cultures. Dissociated cell cultures were obtained from Swiss mouse cerebella on postnatal day 5. At this age, granule cells account for up to 90% of the total cell population, glial cells included. Cells were dissociated by combined trituration and trypsinisation, and grown in chemically defined medium DMEM/Ham's F12 (3 vol/1 vol) containing 0.2 mM glutamine, 5 μg/ml insulin, 100 μg/ml tranferrin, 20 nM progesterone, […] purrescine, 30 nM selenium 100 U/ml penicillin and 0.1 mg/ml streptomycin.
24-well microtiter plates were coated at 37 °C overnight with 20 μg/ml of laminin, 5μg/ml of KAL in PBS, pH=7.4. The plates were washed twice with PBS and non specific sites were blocked by the addition of 1% BSA in PBS for 1 hour at 37° C. Wells were washed twice with PBS. Cerebellar neurons or PC12 cells were resuspended in DMEM to a final concentration of 10^6 cells/ml. 500 μl of this suspension was added to each coated well. […] After 10 min at 37 °C, the 0.5 ml of trypsin-EDTA containing the detached cells were removed and the number of cells was determined by using a cell counter (Coutler, ZM equipped with a Coultronic 256 channelizer).
(§6) Each cell adhesion assay was carried out in triplicate. The ration of adherent cells with respect to the total number of cell ×100 was determined as the % of cell adhesion.

[9] = test system: PC12 cells; assay: Adhesion assay on coated wells, cell counter; includes antibody, heparin and R1-FNIII inhibition; assay type: cell-based, rat; conditions: coating concentration; results not shown; cell type not specified
Protocol: 24-well microtiter plates were coated at 37 °C overnight with 20 μg/ml of laminin, 5μg/ml of KAL in PBS, pH=7.4. The plates were washed twice with PBS and non specific sites were blocked by the addition of 1% BSA in PBS for 1 hour at 37° C. Wells were washed twice with PBS. Cerebellar neurons or PC12 cells were resuspended in DMEM to a final concentration of 10^6 cells/ml. 500 μl of this suspension was added to each coated well. Cells were also added to control wells that had been coated with BSA alone. Plates were incubated at 37° C. for 90 min in a 5% CO2 humidified atmosphere. The wells were washed gently twice with 0.5 ml PBS. To remove adherent cells from the wells, 0.5 ml of 0.05% trypsin-EDTA were added to each well. After 10 min at 37 °C, the 0.5 ml of trypsin-EDTA containing the detached cells were removed and the number of cells was determined by using a cell counter (Coutler, ZM equipped with a Coultronic 256 channelizer).
as §6
For inhibition of cell adhesion, 5 ×10^5 PC12 cells were deposited on areas previously coated with KAL and with antiserum directed against the human KAL protein at different concentrations and treated as described for adhesion assay. […]

[10] = test system: P5 cerebellar granule cells; assay: Adhesion assay, colorimetric, relative to poly-L-lysine; assay type: cell-based, mouse; conditions: 1 hour
Protocol: as §1, §2

Molecule: NHzCGSYANNNRYGRDPPTSV-000H [C16V, reference compound]
- percentage of olfactory neurons (line 24) adherent on substrate [1]: no adhesion

Molecule: NHz-RPSRWYQFRVAAVNVHGTRGFTAPSKHFRSSK-000H [32R1]
- effect of preincubation with peptide on adhesion to fibronectin and laminin substrates [1]: had no effect
- concentration of peptide giving complete inhibition of adhesion to KAL substrate ([1]; cells preincubated with peptide): 26 µM
- percentage of olfactory neurons (line 24) adherent on substrate [1]: 80%
- adhesion of PC12 cells on peptide substrate ([2]; compared with olfactory neurons): same results
- mean neurite length per olfactory neuron ([3]; eight hours after plating): 63 (±2) μm
- mean neurite length per olfactory neuron ([3]; one hour on substrate): 32 (±4) μm

Molecule: O=C(O)CN(CCN(CC(=O)O)CC(=O)O)CC(=O)O [EDTA]
- effect of chelating Ca++ and Mg++ on adhesion of PC12 cells to KAL ([2]; cells incubated with EDTA for 5 minutes prior plating): did not modified the amount of adhering cells

Molecule: fibronectin [reference compound]
- mean neurite length per olfactory neuron ([3]; eight hours after plating): 63 (±2,5) μm
- mean neurite length per olfactory neuron ([3]; one hour on substrate): 46 (±4) μm

B1: KAL protein: recombinant human KAL gene product (680 aa, SwissProt P23352) purified from transfected CHO cells CHKAL2-3/d11 (protein)
chain: AGPGAAAARRLDESLSAGSVQRAPCASRCLSLQITRISAFFQHFQNNGSLVWCQNHKQCSKCLEPCKESGDLRKHQCQSFCEPLFPKKSYECLTSCEFLKYILLVKQGDCPAPEKASGFAAACVESCEVDNECSGVKKCCSNGCGHTCQVPKTLYKGVPLKPRKELRFTELQSGQLEVKWSSKFNISIEPVIYVVQRRWNYGIHPSEDDATHWQTVAQTTDERVQLTDIRPSRWYQFRVAAVNVHGTRGFTAPSKHFRSSKDPSAPPAPANLRLANSTVNSDGSVTVTIVWDLPEEPDIPVHHYKVFWSWMVSSKSLVPTKKKRRKTTDGFQNSVILEKLQPDCDYVVELQAITYWGQTRLKSAKVSLHFTSTHATNNKEQLVKTRKGGIQTQLPFQRRRPTRPLEVGAPFYQDGQLQVKVYWKKTEDPTVNRYHVRWFPEACAHNRTTGSEASSGMTHENYIILQDLSFSCKYKVTVQPIRPKSHSKAEAVFFTTPPCSALKGKSHKPIGCLGEAGHVLSKVLAKPENLSASFIVQDVNITGHFSWKMAKANLYQPMTGFQVTWAEVTTESRQNSLPNSIISQSQILPSDHYVLTVPNLRPSTLYRLEVQVLTPGGEGPATIKTFRTPELPPSSAHRHLKHRHPHHYKPSPERY
- adhesion of CHO-745 cells on the substrate [4]: No adhesion
- adhesion of CHO-606 cells to the substrate [5]: comparable to that found in wild-type
- survival and neurite outgrowth of granule cell aggregates on coated surface [6]: large halo of neuritic processes
- percentage of olfactory neurons (line 24) adherent on substrate [1]: 70%
- decrease of adhesion of CHO-677 cells compared to wild-type CHO-K1 cells [7]: about 70%
- percentage of adherent cells relative to the total number of cells deposited [8]: 80%
- stimulation of neurite elongation by comparison with fibronectin and peptide 32R1 ([3]; eight hours after plating): 30%
- mean neurite length per olfactory neuron ([3]; eight hours after plating): 81 (±5) μm
- mean neurite length per olfactory neuron ([3]; one hour on substrate): 66 (±2,5) μm
- concentration of KAL protein giving maximum percentage of cell adhesion [9]: 5 µg/mL
- percentage of cell adhesion relative to PLL substrate (set as 100%) [10]: 80%
